In the supplement of paper PMC9112550, “Optimization of the antimicrobial peptide Bac7 by deep mutational scanning” (BMC Biology, 2022):

Each sequence was assayed on Escherichia coli TOP10 (assay: shrunken log2 fold change of peptide-encoding DNA abundance (4.5 h post-induction vs induction); higher = less antimicrobial activity (less host growth inhibition)). Conditions: time post-induction: 4.5 h; library: site-saturation at positions 5, 18, 19, 20.
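Also: peptides expressed intracellularly from a pBAD plasmid library in pooled LB shake-flask culture, induced with 0.3% L-arabinose, DNA abundance read by NGS, three biological replicates, DESeq2 with apeglm shrinkage.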

For RRIRDRPPRLPRPRPRPVERPRP, which “shrunken log2 fold change” value is on record?
Its value is -0.00663.

With RRIRRRPPRLPRPRPRPSRDPRP as the sequence, how does the “shrunken log2 fold change” value read?
Its value is 0.303.

Which “shrunken log2 fold change” value does the source give for RRIRKRPPRLPRPRPRPDHKPRP here?
Its value is -0.0248.

With RRIRARPPRLPRPRPRPEQTPRP as the sequence, how does the “shrunken log2 fold change” value read?
Its value is 1.18.

For RRIRARPPRLPRPRPRPRCLPRP, which “shrunken log2 fold change” value is on record?
The value was 0.157.

Which “shrunken log2 fold change” value does the source give for RRIRSRPPRLPRPRPRPIAWPRP here?
Its value is -0.0861.

For RRIRRRPPRLPRPRPRPKMFPRP, which “shrunken log2 fold change” value is on record?
The value was -0.131.

How did the “shrunken log2 fold change” value turn out when RRIRQRPPRLPRPRPRPGQSPRP was run?
The value was -0.0203.

RRIRYRPPRLPRPRPRPSFIPRP was tested. Which “shrunken log2 fold change” value did it give?
Its value is -0.851.

Which “shrunken log2 fold change” value does the source give for RRIRGRPPRLPRPRPRPECVPRP here?
The value was 1.72.

Which “shrunken log2 fold change” value does the source give for RRIRDRPPRLPRPRPRPWTSPRP here?
Its value is 0.21.

Which “shrunken log2 fold change” value does the source give for RRIRLRPPRLPRPRPRPARYPRP here?
Its value is -0.0839.

With RRIRARPPRLPRPRPRPLMGPRP as the sequence, how does the “shrunken log2 fold change” value read?
Its value is 0.489.

How did the “shrunken log2 fold change” value turn out when RRIRDRPPRLPRPRPRPRRPPRP was run?
Its value is 0.652.

With RRIRQRPPRLPRPRPRPCSEPRP as the sequence, how does the “shrunken log2 fold change” value read?
The value was -0.201.

How did the “shrunken log2 fold change” value turn out when RRIRFRPPRLPRPRPRPKHHPRP was run?
Its value is -0.282.

How did the “shrunken log2 fold change” value turn out when RRIRDRPPRLPRPRPRPLCYPRP was run?
The value was 0.00826.

With RRIRERPPRLPRPRPRPKFHPRP as the sequence, how does the “shrunken log2 fold change” value read?
The value was -0.554.

Which “shrunken log2 fold change” value does the source give for RRIRTRPPRLPRPRPRPCQLPRP here?
The value was -0.161.

With RRIRHRPPRLPRPRPRPNCCPRP as the sequence, how does the “shrunken log2 fold change” value read?
The value was 0.0161.

Which “shrunken log2 fold change” value does the source give for RRIRFRPPRLPRPRPRPHPSPRP here?
The value was -0.107.

With RRIRARPPRLPRPRPRPKHLPRP as the sequence, how does the “shrunken log2 fold change” value read?
Its value is 0.417.

For RRIRVRPPRLPRPRPRPCVKPRP, which “shrunken log2 fold change” value is on record?
Its value is -0.657.

Which “shrunken log2 fold change” value does the source give for RRIRFRPPRLPRPRPRPRKMPRP here?
The value was 0.0208.

How did the “shrunken log2 fold change” value turn out when RRIRMRPPRLPRPRPRPPIGPRP was run?
Its value is 0.161.

For RRIRMRPPRLPRPRPRPCWQPRP, which “shrunken log2 fold change” value is on record?
The value was 0.0757.

For RRIRERPPRLPRPRPRPSKWPRP, which “shrunken log2 fold change” value is on record?
Its value is -0.241.

RRIRWRPPRLPRPRPRPIIGPRP was tested. Which “shrunken log2 fold change” value did it give?
The value was 0.0626.

With RRIRSRPPRLPRPRPRPSKRPRP as the sequence, how does the “shrunken log2 fold change” value read?
The value was -0.126.

For RRIRARPPRLPRPRPRPGGAPRP, which “shrunken log2 fold change” value is on record?
The value was 0.76.

Which “shrunken log2 fold change” value does the source give for RRIRDRPPRLPRPRPRPTSYPRP here?
The value was -0.189.

How did the “shrunken log2 fold change” value turn out when RRIRFRPPRLPRPRPRPPVSPRP was run?
The value was 0.0761.

With RRIRTRPPRLPRPRPRPCIKPRP as the sequence, how does the “shrunken log2 fold change” value read?
The value was -0.476.

With RRIRNRPPRLPRPRPRPEPNPRP as the sequence, how does the “shrunken log2 fold change” value read?
The value was 0.0829.

With RRIRDRPPRLPRPRPRPIVTPRP as the sequence, how does the “shrunken log2 fold change” value read?
The value was 0.171.

RRIRWRPPRLPRPRPRPTHTPRP was tested. Which “shrunken log2 fold change” value did it give?
The value was -0.252.

RRIRTRPPRLPRPRPRPMSVPRP was tested. Which “shrunken log2 fold change” value did it give?
Its value is -0.00965.

With RRIRGRPPRLPRPRPRPYHMPRP as the sequence, how does the “shrunken log2 fold change” value read?
Its value is -0.345.

Which “shrunken log2 fold change” value does the source give for RRIRMRPPRLPRPRPRPPDSPRP here?
The value was 0.198.

For RRIRNRPPRLPRPRPRPCIYPRP, which “shrunken log2 fold change” value is on record?
Its value is -0.599.

RRIRVRPPRLPRPRPRPVAEPRP was tested. Which “shrunken log2 fold change” value did it give?
The value was 0.104.

How did the “shrunken log2 fold change” value turn out when RRIRQRPPRLPRPRPRPPILPRP was run?
The value was -0.13.

How did the “shrunken log2 fold change” value turn out when RRIRRRPPRLPRPRPRPCINPRP was run?
Its value is 2.42.

How did the “shrunken log2 fold change” value turn out when RRIRHRPPRLPRPRPRPRTYPRP was run?
The value was -0.749.

Which “shrunken log2 fold change” value does the source give for RRIRVRPPRLPRPRPRPKLVPRP here?
The value was 0.194.

With RRIRIRPPRLPRPRPRPQSKPRP as the sequence, how does the “shrunken log2 fold change” value read?
The value was -0.493.

Which “shrunken log2 fold change” value does the source give for RRIRIRPPRLPRPRPRPKSTPRP here?
The value was -0.214.

RRIRQRPPRLPRPRPRPGIPPRP was tested. Which “shrunken log2 fold change” value did it give?
Its value is -0.0269.

With RRIRIRPPRLPRPRPRPRLKPRP as the sequence, how does the “shrunken log2 fold change” value read?
The value was 0.0139.

How did the “shrunken log2 fold change” value turn out when RRIRHRPPRLPRPRPRPRTKPRP was run?
The value was 0.204.

RRIRWRPPRLPRPRPRPLTRPRP was tested. Which “shrunken log2 fold change” value did it give?
The value was 2.04.

For RRIRHRPPRLPRPRPRPTTEPRP, which “shrunken log2 fold change” value is on record?
Its value is -0.0115.

Which “shrunken log2 fold change” value does the source give for RRIRPRPPRLPRPRPRPFKHPRP here?
Its value is 0.0339.

RRIRDRPPRLPRPRPRPWSRPRP was tested. Which “shrunken log2 fold change” value did it give?
The value was -0.612.

How did the “shrunken log2 fold change” value turn out when RRIRGRPPRLPRPRPRPVQEPRP was run?
Its value is 0.873.

RRIRERPPRLPRPRPRPNLNPRP was tested. Which “shrunken log2 fold change” value did it give?
Its value is -0.58.

For RRIRTRPPRLPRPRPRPLVQPRP, which “shrunken log2 fold change” value is on record?
The value was 0.149.

For RRIRARPPRLPRPRPRPANGPRP, which “shrunken log2 fold change” value is on record?
Its value is 0.109.

How did the “shrunken log2 fold change” value turn out when RRIRTRPPRLPRPRPRPMIVPRP was run?
Its value is -0.158.

RRIRFRPPRLPRPRPRPDADPRP was tested. Which “shrunken log2 fold change” value did it give?
The value was 0.386.

RRIRERPPRLPRPRPRPNITPRP was tested. Which “shrunken log2 fold change” value did it give?
The value was -0.738.

For RRIRMRPPRLPRPRPRPVSNPRP, which “shrunken log2 fold change” value is on record?
The value was 0.499.

How did the “shrunken log2 fold change” value turn out when RRIRIRPPRLPRPRPRPICKPRP was run?
Its value is -0.199.

How did the “shrunken log2 fold change” value turn out when RRIRYRPPRLPRPRPRPAWLPRP was run?
Its value is -0.0755.

Which “shrunken log2 fold change” value does the source give for RRIRYRPPRLPRPRPRPKEEPRP here?
Its value is -0.0656.

With RRIRRRPPRLPRPRPRPDNSPRP as the sequence, how does the “shrunken log2 fold change” value read?
Its value is -0.078.

RRIRERPPRLPRPRPRPLHLPRP was tested. Which “shrunken log2 fold change” value did it give?
Its value is -0.0385.

Which “shrunken log2 fold change” value does the source give for RRIRERPPRLPRPRPRPQTPPRP here?
The value was 0.0694.

With RRIRWRPPRLPRPRPRPLMWPRP as the sequence, how does the “shrunken log2 fold change” value read?
The value was 0.173.

For RRIRYRPPRLPRPRPRPCHQPRP, which “shrunken log2 fold change” value is on record?
Its value is -0.00822.

RRIRGRPPRLPRPRPRPQYSPRP was tested. Which “shrunken log2 fold change” value did it give?
The value was 0.0802.

Which “shrunken log2 fold change” value does the source give for RRIRDRPPRLPRPRPRPAQVPRP here?
Its value is -0.286.

Which “shrunken log2 fold change” value does the source give for RRIRPRPPRLPRPRPRPAQRPRP here?
The value was 0.104.

With RRIRYRPPRLPRPRPRPLQRPRP as the sequence, how does the “shrunken log2 fold change” value read?
Its value is -0.208.

Which “shrunken log2 fold change” value does the source give for RRIRTRPPRLPRPRPRPVDVPRP here?
Its value is -0.236.
